Assay [1] has as its target T1, Human C4b (human, UniProt P0C0L4 20-675; P0C0L4 757-1446; P0C0L4 1454-1744).
T1 construct: Both allotypes may be present; Deglycosylated C4b was used for the crystals; also called hC4b
Put plainly: SEC.

Assay [2] deals with T2, Human C1q (human, UniProt P02745 23-245; P02746 28-253; P02747 29-245).
T2 construct: Purified human C1q, or C1q in normal human serum, depending on the assay; also called hC1q
Put plainly: Plate assay: C1q binding to wells coated with human IgG in the presence of 0.32-1000 ng/ml nanobody, relative fluorescence; blocked ligand: IgG.

The target of another assay is T3, Human C3b (human, UniProt P01024 23-667; P01024 749-1663).
T3 construct: also called hC3b
Put plainly: surface plasmon resonance.

The target of a further assay is C3MA (UniProt P01024 23-1663, limits assumed). Put plainly: surface plasmon resonance.
The target of assay [3] is T4, Human C3 (native C3) (human, UniProt P01024 23-1663).
T4 construct: Purified from outdated human plasma; The entry is given as one stretch, 23-1663; also called hC3; Nat C3
Put plainly: surface plasmon resonance.

The next assay concerns the target T5, Mouse C3 (mouse, UniProt P01027 25-1663).
T5 construct: the preparation tested is not described; also called mC3
Put plainly: overview table, + indicates binding; method not given.

Assay [4] deals with T1, Human C4b. Put plainly: SPR (BIAcore T200), biotinylated hC4bNb6 captured on streptavidin, analyte C4b; mean ± S.E.; the table names only the analyte. As to the method:
(§1) Surface plasmon resonance measurements were conducted using a BIAcore T200 instrument (GE Healthcare). Streptavidin was diluted to 10 μg/mL in 10 mM sodium acetate pH=4.5 and immobilized to 100 RU on the carboxymethylated dextran surface of a CM5 sensor chip (GE Healthcare) using an amine coupling kit. […] The binding measurements were performed in 20 mM HEPES, 150 mM NaCl, 3 mM MgCl2, 0.05% Tween 20 pH=7.5 at 30 μL/min flow rate. At the end of each concentration measurement the surface was regenerated by injection of 100 mM glycine pH=2.7 for three cycles of 10 s contact time. Sensograms were recorded at concentrations 0.1, 5, 10, 25, 50 and 100 nM for C4, while at 0.1, 1, 5, 10, 25 nM for C4b. Fitting of the data was performed for all the measured concentrations simoultaneously, using BIAevaluation software (GE Healthcare). The apparent equilibrium dissociation constants (KD) were calculated from the ratio between the association and dissociation constants.

Assay [5] deals with T6, Human C4 (human, UniProt P0C0L4 20-675; P0C0L4 680-1446; P0C0L4 1454-1744).
T6 construct: also called hC4
Put plainly: SPR (BIAcore T200), biotinylated hC4bNb6 captured on streptavidin, analyte C4; apparent KD, mean ± S.E.; the table names only the analyte. As to the method:
as §1

Assay [6] addresses T6, Human C4. Put plainly: SPR (BIAcore T200), biotinylated hC4bNb6 captured on streptavidin, analyte C4; mean ± S.E.; the table names only the analyte. As to the method: as §1
For assay [7], the target named is T1, Human C4b. Put plainly: SPR (BIAcore T200), biotinylated hC4bNb6 captured on streptavidin, analyte C4b; apparent KD, mean ± S.E.; the table names only the analyte. The protocol: as §1
The target of assay [8] is T6, Human C4. Put plainly: overview table, + indicates binding; method not given.
Assay [9] addresses T1, Human C4b. The assay is described as above.
Assay [10] deals with T1, Human C4b. Put plainly: SEC (Superdex 200 increase) of the proconvertase C4b2 and of its parts.
For assay [11], the target named is T2, Human C1q. Put plainly: overview table, + indicates binding; method not given.
The target in the next assay is T7, Mouse C4b (mouse, UniProt P01029 20-673; P01029 754-1443; P01029 1448-1738).
T7 construct: in C4b the C4a part is cleaved off; The source of the mC4b is not described; also called mC4b
The assay is described as above.

Assay [12] concerns the target T8, globular head of human C1q (hC1qGH) (human).
T8 construct: domain: globular head; Made in stably transfected HEK293F cells; also called hC1gGH
Put plainly: bio-layer interferometry, IF75 on the sensors, hC1qGH in solution, global fit.

For assay [13], the target named is T4, Human C3 (native C3). Put plainly: SEC (Superdex 200 increase), 1:1 molar mix.

T2 sequence (P02745 23-245 limits assumed, chain 1 of 3): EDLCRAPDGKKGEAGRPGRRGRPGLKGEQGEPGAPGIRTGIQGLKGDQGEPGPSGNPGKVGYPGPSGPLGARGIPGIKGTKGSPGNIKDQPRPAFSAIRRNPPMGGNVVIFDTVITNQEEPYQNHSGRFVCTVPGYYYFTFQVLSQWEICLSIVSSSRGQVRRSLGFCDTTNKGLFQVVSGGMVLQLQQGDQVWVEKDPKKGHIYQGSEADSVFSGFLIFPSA
T2 sequence (P02746 28-253 limits assumed, chain 2 of 3): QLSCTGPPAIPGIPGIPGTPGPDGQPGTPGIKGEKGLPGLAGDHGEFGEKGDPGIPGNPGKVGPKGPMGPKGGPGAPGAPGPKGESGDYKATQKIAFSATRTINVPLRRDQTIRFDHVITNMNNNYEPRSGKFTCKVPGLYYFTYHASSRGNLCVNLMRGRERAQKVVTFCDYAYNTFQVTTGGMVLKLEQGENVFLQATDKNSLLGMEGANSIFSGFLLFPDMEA
T2 sequence (P02747 29-245 limits assumed, chain 3 of 3): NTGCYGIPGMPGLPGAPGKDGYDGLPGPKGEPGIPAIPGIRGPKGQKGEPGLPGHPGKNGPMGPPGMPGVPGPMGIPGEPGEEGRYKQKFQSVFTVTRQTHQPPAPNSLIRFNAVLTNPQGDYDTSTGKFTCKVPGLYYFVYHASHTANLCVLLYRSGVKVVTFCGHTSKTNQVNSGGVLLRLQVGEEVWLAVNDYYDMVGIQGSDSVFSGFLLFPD
T1 sequence (P0C0L4 20-675 limits assumed, chain 1 of 3): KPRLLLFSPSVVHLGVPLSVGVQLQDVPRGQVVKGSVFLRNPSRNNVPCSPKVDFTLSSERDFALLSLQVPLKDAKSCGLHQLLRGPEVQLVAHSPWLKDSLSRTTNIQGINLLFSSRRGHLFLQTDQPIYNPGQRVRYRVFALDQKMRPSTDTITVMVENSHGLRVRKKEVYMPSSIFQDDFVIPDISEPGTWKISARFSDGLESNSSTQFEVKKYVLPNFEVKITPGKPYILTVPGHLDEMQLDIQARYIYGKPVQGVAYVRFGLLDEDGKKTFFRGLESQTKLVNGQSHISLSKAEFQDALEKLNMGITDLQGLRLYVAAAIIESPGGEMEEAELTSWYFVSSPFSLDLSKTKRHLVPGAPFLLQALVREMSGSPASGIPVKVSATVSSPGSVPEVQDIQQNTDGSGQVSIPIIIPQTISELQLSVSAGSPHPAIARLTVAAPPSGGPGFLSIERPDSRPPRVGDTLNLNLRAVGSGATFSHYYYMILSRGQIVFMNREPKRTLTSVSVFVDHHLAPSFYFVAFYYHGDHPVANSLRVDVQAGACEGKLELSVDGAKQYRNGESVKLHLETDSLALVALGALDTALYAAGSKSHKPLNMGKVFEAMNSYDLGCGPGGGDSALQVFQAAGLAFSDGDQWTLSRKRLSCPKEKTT
T1 sequence (P0C0L4 757-1446 limits assumed, chain 2 of 3): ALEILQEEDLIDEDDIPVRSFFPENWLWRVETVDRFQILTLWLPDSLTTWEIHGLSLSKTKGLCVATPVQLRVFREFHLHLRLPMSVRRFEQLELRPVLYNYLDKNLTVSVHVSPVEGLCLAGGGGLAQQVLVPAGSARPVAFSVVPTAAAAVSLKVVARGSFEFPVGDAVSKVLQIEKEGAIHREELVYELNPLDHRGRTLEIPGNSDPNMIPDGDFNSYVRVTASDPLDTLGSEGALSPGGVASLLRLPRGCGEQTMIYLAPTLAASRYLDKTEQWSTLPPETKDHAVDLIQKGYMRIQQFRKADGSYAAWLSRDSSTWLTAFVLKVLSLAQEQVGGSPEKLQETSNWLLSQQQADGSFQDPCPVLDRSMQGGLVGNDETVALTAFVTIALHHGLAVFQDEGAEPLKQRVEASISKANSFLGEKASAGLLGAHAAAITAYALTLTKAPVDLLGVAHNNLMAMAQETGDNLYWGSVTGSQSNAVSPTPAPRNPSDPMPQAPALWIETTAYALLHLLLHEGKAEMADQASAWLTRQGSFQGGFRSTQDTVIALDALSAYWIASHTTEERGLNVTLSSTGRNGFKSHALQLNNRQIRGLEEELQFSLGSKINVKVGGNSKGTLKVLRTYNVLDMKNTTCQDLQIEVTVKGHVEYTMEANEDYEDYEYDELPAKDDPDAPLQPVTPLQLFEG
T1 sequence (P0C0L4 1454-1744 limits assumed, chain 3 of 3): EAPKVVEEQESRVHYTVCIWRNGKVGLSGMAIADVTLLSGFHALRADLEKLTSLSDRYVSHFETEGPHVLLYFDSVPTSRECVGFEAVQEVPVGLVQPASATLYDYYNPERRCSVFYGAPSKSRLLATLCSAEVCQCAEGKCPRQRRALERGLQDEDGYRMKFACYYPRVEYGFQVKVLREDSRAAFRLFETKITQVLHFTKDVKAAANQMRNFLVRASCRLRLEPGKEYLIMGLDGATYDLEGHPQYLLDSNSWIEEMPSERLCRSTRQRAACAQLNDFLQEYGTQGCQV
T6 sequence (P0C0L4 20-675 limits assumed, chain 1 of 3): as the sequence (P0C0L4 20-675 limits assumed, chain 1 of 3) above
T6 sequence (P0C0L4 680-1446 limits assumed, chain 2 of 3): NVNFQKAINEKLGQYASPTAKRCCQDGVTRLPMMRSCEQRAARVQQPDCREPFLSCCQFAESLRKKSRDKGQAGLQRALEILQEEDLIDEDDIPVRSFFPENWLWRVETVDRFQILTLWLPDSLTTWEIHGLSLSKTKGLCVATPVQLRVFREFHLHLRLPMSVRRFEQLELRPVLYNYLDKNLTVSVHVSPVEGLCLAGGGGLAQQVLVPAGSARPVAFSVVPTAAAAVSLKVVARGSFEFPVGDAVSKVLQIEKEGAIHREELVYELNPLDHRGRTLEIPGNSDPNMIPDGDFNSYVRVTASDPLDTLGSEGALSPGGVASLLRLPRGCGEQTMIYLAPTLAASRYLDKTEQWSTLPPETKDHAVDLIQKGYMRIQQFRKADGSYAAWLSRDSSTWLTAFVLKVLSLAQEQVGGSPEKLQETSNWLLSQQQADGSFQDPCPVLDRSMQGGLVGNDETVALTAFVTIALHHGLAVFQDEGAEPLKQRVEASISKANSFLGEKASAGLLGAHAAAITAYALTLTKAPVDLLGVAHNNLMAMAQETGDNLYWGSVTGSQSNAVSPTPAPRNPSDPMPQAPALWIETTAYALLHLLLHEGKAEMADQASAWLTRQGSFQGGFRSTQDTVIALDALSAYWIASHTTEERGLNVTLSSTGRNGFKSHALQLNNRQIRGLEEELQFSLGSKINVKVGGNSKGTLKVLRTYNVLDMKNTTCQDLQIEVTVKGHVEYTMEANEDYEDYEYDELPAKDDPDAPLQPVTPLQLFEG
T6 sequence (P0C0L4 1454-1744 limits assumed, chain 3 of 3): as the sequence (P0C0L4 1454-1744 limits assumed, chain 3 of 3) above
T8 sequence (P02745 110-245, chain 1 of 3): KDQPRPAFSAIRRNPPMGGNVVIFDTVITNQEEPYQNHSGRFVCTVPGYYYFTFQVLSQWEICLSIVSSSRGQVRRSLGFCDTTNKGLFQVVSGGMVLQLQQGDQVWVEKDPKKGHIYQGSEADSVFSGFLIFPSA
T8 sequence (P02747 115-245, chain 2 of 3, further chain): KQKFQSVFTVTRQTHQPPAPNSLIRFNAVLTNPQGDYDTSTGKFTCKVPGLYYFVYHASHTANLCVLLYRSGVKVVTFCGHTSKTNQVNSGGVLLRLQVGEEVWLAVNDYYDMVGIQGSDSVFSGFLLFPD
T8 sequence (P02746 117-253, chain 3 of 3, further chain): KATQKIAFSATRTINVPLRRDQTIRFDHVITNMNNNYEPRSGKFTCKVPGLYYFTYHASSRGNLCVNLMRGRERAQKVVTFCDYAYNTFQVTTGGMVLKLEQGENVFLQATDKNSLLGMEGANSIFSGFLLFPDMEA

B1: hC4Nb8 (VHH)
VHH: QVQLVESGGGLVQTGDSLRLSCAASGRTFSRYAMGWFRQAPGKERELVAAINWSGGSTYYADFAKGRFTISRDNAKNMLYLRMSSLKPEDTAVYYCAAGGPEVEITRANEYDYWGQGTQVTVSS
notes: also called hC4bNb8
Take B1: the binding result with Human C4b [1] is recorded as “binds”.

B2: IH31 (VHH)
VHH: QVQLVESGGGLVQAGGSLRLSCAASGRTSSDHITAWFRQAPGKEREFVASINWSGSRAYYADSDKRRFTISRDNAKNTVSLQTNSLKPEDTAVYYCAVKFADISDAYYHHQTDYDYWGQGTQVTVSS
B2: in the assay with Human C1q [2], the binding result was “binds”.

B3: EA57 (VHH)
VHH: QVQLVESGGGLVQPGGSLRLSCAASGFTLNQYAIGWFRQAPGKEREGVSCISNSDGGLYYADSVKGRFTISRDNAKNTVYLQMNSLKPEDTAVYYCATDPGGPTMYGSRWCDSRLFYSWGQGTQVTVSS
In the case of B3, the binding result in the assay with Human C1q [2] is on record as “binds”.

B4: DI62 (VHH)
VHH: QVQLVESGGGLVQAGGSLRLSCAASGRTFSDYTMGWFRQAPGKEREFVAGLSTGGSFTRYAASVEGRFTISRDNAKTTVYLQMNNLQPEDTAVYYCAADFTPYGTNWSRFREARDHYWGQGTQVTVSS
notes: Llama nanobody made in E. coli and purified on His-Trap
B4: in the assay with Human C3b, the Kd came out at 4.7 nM, the koff worked out at 0.00029 s⁻¹ and the kon is 62000 M⁻¹ s⁻¹. Besides, in the assay with C3MA, the Kd was determined as 3.2 nM, the koff is 0.00026 s⁻¹ and the kon worked out at 80000 M⁻¹ s⁻¹. In the assay with Human C3 (native C3) [3], the Kd came to 5.5 nM, the off-rate (koff) is 0.00057 s⁻¹ and the kon was 100000 M⁻¹ s⁻¹. Further, the binding result with Mouse C3 is reported as “binds”.

B5: hC4bNb6 (VHH)
VHH: QVQLVETGGGVVRAGGSLRLSCAASGRTLGRYSMAWFRQAPGKERQFVAAINWSGGSTYYPDFAKDRFTISRDSAKNMVYLQMNSLKPEDTAVYYCAAGGMDIEITRANEYDYWGQGTQVTVSS
notes: Biotinylated and captured on streptavidin for SPR
Turning to B5, the figures for the koff with Human C4b [4] and with Human C4 [6] were 6.1e-05 s⁻¹ and 5.7e-05 s⁻¹, respectively. For the same molecule, the on-rate constant (kon) in the assay with Human C4b [4] is 530000 M⁻¹ s⁻¹; with Human C4 [6], 123000 M⁻¹ s⁻¹. Further, the Kd with Human C4 [5] came out at 0.46 nM; with Human C4b [7], 0.12 nM.

B6: IH33 (VHH)
VHH: QVQLVETGGGLVQTGGSLRLSCAASGSTDSIAAIIWYRQTPENEREFVAGITSGVNTNYAAPVKGRFTISRDNAKNTVYLQMNSLKPEDTGVYYCKAAVVMGPSTTDYWGQGTQVTVSS
B6: the binding result with Human C1q [2] was “binds”.

B7: hC4Nb5 (VHH)
VHH: QVQLVETGGGLVQPGGSLRLSCAASGRTFNKNPMAWFRQPPGQERDLVAAISWSGDSTNYANSVQGRFTISRNNAQRTVSLSMNNLKPEDTAVYYCAAVGRTDYSPNSLALTAQNYDYWGQGTQVTVSS
notes: also called hC4bNb5
With B7, the binding result in the assay with Human C4 [8] and with Human C4b [9] was “binds” each time.

B8: C2 (Cys261Ala, Gln263Lys) (enzyme, UniProt P06681 21-752, looked up)
chain: APSCPQNVNISGGTFTLSHGWAPGSLLTYSCPQGLYPSPASRLCKSSGQWQTPGATRSLSKAVCKPVRCPAPVSFENGIYTPRLGSYPVGGNVSFECEDGFILRGSPVRQCRPNGMWDGETAVCDNGAGHCPNPGISLGAVRTGFRFGHGDKVRYRCSSNLVLTGSSERECQGNGVWSGTEPICRQPYSYDFPEDVAPALGTSFSHMLGATNPTQKTKESLGRKIQIQRSGHLNLYLLLDASKSVSENDFLIFKESASLMVDRIFSFEINVSVAIITFASEPKVLMSVLNDNSRDMTEVISSLENANYKDHENGTGTNTYAALNSVYLMMNNQMRLLGMETMAWQEIRHAIILLTDGKSNMGGSPKTAVDHIREILNINQKRNDYLDIYAIGVGKLDVDWRELNELGSKKDGERHAFILQDTKALHQVFEHMLDVSKLTDTICGVGNMSANASDQERTPWHVTIKPKSQETCRGALISDQWVLTAAHCFRDGNDHSLWRVNVGDPKSQWGKEFLIEKAVISPGFDVFAKKNQGILEFYGDDIALLKLAQKVKMSTHARPICLPCTMEANLALRRPQGSTCRDHENELLNKQSVPAHFVALNGSKLNINLKMGVEWTSCAEVVSQEKTMFPNLTDVREVVTDQFLCSGTQEDESPCKGESGGAVFLERRFRFFQVGLVSWGLYNPCLGSADKNSRKRAPRSKVPPPRDFHINLFRMQPWLRQHLGDVLNFLPL
Regarding B8, the binding result with Human C4b [10] is given as “binds”.

B9: IH39 (VHH)
VHH: QVQLVESGGGLVQAGGSLRLSCVAYGVASVTTVMGWFRQSPGKEREFVAAIGPSGGTHYGDSAKGRFTISRDNAKNTVYLQMNSLKPEDTAVYDCAADLRGGGMWASSGRYEYWGQGTQVTVSS
On to B9, for which the binding result in the assay with Human C1q [11] was “binds”.

B10: hC4Nb4 (VHH)
VHH: QVQLVETGGGLVEAGGSLRISCAASGRYAMGWFRQAPGNERDFVAAISRSGDSANYADTAWGRFTISRDNAQNTMTLQMNSLKPEDTAVYYCAAKAGLYSLNSLFLRSQEYTYWGQGTQVTVSS
notes: also called hC4bNb4
Consider B10, for which the binding result with Human C4 [8] and with Human C4b [9] was “binds” throughout.

B11: pNSL270 (VHH)
VHH: QVQLVESGGGLVQAGGSLRLSCVASASTLDIYTYAMAWFRQAPGKRREFVAAISRNGYSTYYADSVKGRFTISKLNAKNTLYLQMNSLEPEDTAAYYCAADRTTEVVDREDDYGYWGQGTQVTVSS
Regarding B11, the binding result with Mouse C4b is “binds”.

B12: IF75 (VHH)
VHH: QVQLVETGGGLVQAGGSLRLSCAASGRTFNNDVMAWFRQAPGTEREFVALITAGGGTHYADSVKGRFVISRDNDKNMAYLQMNSLKSEDTAIYYCGADENPPGWPSRWSSAYDYWGQGTQVTVSS
notes: also called 59IF75
For B12, the Kd in [12] came to 0.5 nM. The binding result in the assay with Human C1q [2] is recorded as “binds”.

B13: IH35 (VHH)
VHH: QVQLVETGGGVAQAGGSLRLSCAASGFSFDDYAIGWLRQAPGKEREGVSCISAGDGSPQYADSVKGRFTISSDNAKNTVYLQMNSLKPEDTAVYYCAVSRWSNCAWDYYGMDPWGKGTLVTVSS
As for B13, in the assay with Human C1q [11], the binding result is given as “binds”.

B14: EWE-hC3Nb1 (VHH)
VHH: QVQLVETGGGLVQAGGSLRLSCAASGSIFSINAMGWFRQAPGKEREFVATINRSGGRTYYADSVKGRFTISRDNGKNMVYLQMHSLKPEDTAIYYCAAGTGWSPQTDNEYNYWGQGTQVTVSS
notes: Biotinylated for BLI; also called EWE-hC3bNb1
Take B14: the binding result with Human C3 (native C3) [13] is “no binding”.

The values are drawn from patent US12240912 (AARHUS UNIVERSITET, dated 2025).
